In publication PMC8080530, “Glucocorticoid receptor Thr524 phosphorylation by MINK1 induces interactions with 14-3-3 protein regulators” (The Journal of Biological Chemistry, 2021):
Where two headings read alike, the source gives them in different places. Non-standard residues stand in square brackets, D forms with d. Residues, ends and D or L forms follow the SMILES beside them. Primed or numbered codes have the meaning given here. No end group written: not given here. *: point of attachment. FITC′ = fluorescein isothiocyanate tag added on resin (method C); FITC = O=C1OC2(c3ccc(O)cc3Oc3cc(O)ccc32)c2ccc(NC(=S)*)cc21; pT = C[C@@H](OP(=O)(O)O)[C@H](N)C(=O)O; pS = N[C@@H](COP(=O)(O)O)C(=O)O

How the values were obtained:
[1] = target: T1, 14-3-3ζ (Homo sapiens, UniProt P63104); assay: FP assay with GR phosphorylated peptides and 14-3-3ζ; format: binding
T1 construct: Full-length expression and purification of 14-3-3; made in house; host or cells: E. coli BL21 (DE3)STAR
T1 sequence (P63104 1-245): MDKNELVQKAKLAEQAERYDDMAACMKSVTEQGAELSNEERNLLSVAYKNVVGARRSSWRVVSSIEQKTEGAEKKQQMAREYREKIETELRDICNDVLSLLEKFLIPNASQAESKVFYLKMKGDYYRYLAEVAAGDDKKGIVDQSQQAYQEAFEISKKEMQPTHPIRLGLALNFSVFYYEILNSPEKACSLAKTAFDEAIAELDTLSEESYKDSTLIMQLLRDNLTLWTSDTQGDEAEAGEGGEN
Method in brief: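 Fluorescence polarization (ex 485/em 520 nm) was read in triplicate after 30-min RT incubation. Binding data were fitted to a standard Hill equation and expressed in mP units. The dynamic range (ΔmP) is the difference between bound and free peptide signals.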

[2] = target: T2, 14-3-3σ (Homo sapiens, UniProt P31947); assay: FP assay with GR phosphorylated peptides and 14-3-3σ; format: binding; settings: FITC-labeled peptide titrated with 14-3-3σ, 30 min RT, triplicates
T2 construct: Full-length expression and purification of 14-3-3; made in house; host or cells: E. coli BL21 (DE3)STAR
T2 sequence (P31947 1-248): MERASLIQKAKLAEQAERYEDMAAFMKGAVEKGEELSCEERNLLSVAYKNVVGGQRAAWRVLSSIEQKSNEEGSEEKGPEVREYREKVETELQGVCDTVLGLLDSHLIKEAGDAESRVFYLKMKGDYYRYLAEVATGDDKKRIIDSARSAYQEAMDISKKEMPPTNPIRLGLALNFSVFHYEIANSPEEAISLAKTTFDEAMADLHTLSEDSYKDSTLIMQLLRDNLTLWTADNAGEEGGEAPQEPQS
Description: After 30-min incubation at RT, the plates were read on a plate reader PHERAstar (BMG LABTECH GmbH) for FP signal using […] and standard excitation (485 nm) and emission (520 nm). Measurements were performed as triplicates. Binding data were fit to a standard Hill equation using the software Genedata Screener. The figures were made using the software GraphPad Prism 8. FP data were expressed as millipolarization (mP) units, and the dynamic range (ΔmP) was the difference of the signals from the bound peptide and free peptide. Errors are the standard error of the fit.

[3] = target: T3, human 14-3-3σ, full length, 6His-Linker-h14-3-3 (human, UniProt P31947 1-248); assay: fluorescence polarisation; FITC-labelled peptide at 60 nM (monophosphorylated) or 10 nM (doubly phosphorylated) titrated with 14-3-3ζ or 14-3-3σ in dilution series from 300 μM or 150 μM; 30 min at RT; 384-well plate; Hill fit; triplicates; settings: both partners purified
T3 construct: 14-3-3 protein sigma, human, cloned in pProEx Htb; also called σ isoform of human 14-3-3; source: E. coli BL21 (DE3)STAR, purified (Ni-NTA, SEC); not shown: His6 with linker [residues removed], N-terminal, kept
T3 sequence (looked up): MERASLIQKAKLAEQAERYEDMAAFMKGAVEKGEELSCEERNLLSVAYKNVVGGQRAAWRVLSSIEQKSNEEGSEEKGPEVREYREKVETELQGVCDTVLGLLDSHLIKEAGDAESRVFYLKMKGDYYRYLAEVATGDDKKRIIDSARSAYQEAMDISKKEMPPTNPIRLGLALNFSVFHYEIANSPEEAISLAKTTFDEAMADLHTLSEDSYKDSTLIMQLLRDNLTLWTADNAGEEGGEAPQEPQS

[4] = target: T4, human 14-3-3ζ, full length, 6His-Linker-h14-3-3 (human, UniProt P63104 1-245); assay: FP
T4 chain: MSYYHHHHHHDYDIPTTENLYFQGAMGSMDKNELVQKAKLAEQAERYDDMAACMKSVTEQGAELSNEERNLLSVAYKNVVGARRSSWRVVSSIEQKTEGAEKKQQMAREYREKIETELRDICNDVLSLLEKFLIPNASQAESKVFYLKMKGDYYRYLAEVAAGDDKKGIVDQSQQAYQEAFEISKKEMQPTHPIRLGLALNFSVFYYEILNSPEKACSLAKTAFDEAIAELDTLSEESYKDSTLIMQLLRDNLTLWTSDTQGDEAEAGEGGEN

[5] = target: T4, human 14-3-3ζ, full length, …; assay: SPR
[6] = FITC-labeled peptide 60 nM (monophosphorylated) or 10 nM (doubly phosphorylated) titrated with 14-3-3ζ, 30 min RT, Hill fit, triplicates, read-out: Kd with 14-3-3ζ by FP

With `CC(C)C[C@H](NC(=O)[C@H](CC(C)C)NC(=O)[C@H](Cc1ccccc1)NC(=O)[C@H](COP(=O)(O)O)NC(=O)[C@H](CC(=O)O)NC(=O)[C@H](CC(=O)O)NC(=O)[C@H](CCC(=O)O)NC(=O)CNC(=O)[C@H](C)NC(=O)[C@@H](N)CC(C)C)C(=O)N[C@@H](CCC(=O)O)C(=O)NCC(=O)N[C@@H](CC(N)=O)C(=O)O` [GR_pS234] (H-LAGEDD[pS]FLLEGN-OH; N-terminus assumed) as the molecule, how does the Kd [1, 6] read?
Its Kd is greater than 150000 nM.

For `CC(C)C[C@H](NC(=O)[C@@H](NC(=O)[C@@H](NC(=O)[C@H](CC(N)=O)NC(=O)[C@H](CO)NC(=O)[C@@H]1CCCN1C(=O)[C@H](COP(=O)(O)O)NC(=O)[C@H](CO)NC(=O)[C@H](CC(C)C)NC(=O)[C@@H](NC(=O)[C@H](CC(C)C)NC(=O)[C@H](CC(=O)O)NC(=O)CN)C(C)C)C(C)C)[C@@H](C)O)C(=O)O` [GR_pS267] (H-GDLVLS[pS]PSNVTL-OH; N-terminus assumed), which Kd [1, 6] is on record?
The Kd was greater than 150000 nM.

With `CSCC[C@H](N)C(=O)N[C@@H](CCCNC(=N)N)C(=O)N1CCC[C@H]1C(=O)N[C@@H](CC(=O)O)C(=O)N[C@H](C(=O)N[C@@H](CO)C(=O)N[C@@H](COP(=O)(O)O)C(=O)N1CCC[C@H]1C(=O)N1CCC[C@H]1C(=O)N[C@@H](CO)C(=O)N[C@@H](CO)C(=O)N[C@@H](CO)C(=O)N[C@@H](CO)C(=O)O)C(C)C` [GR_pS404] (H-MRPDVS[pS]PPSSSS-OH; N-terminus assumed) as the molecule, how does the Kd [1, 6] read?
Its Kd is greater than 150000 nM.

With `CC[C@H](C)[C@H](NC(=O)[C@@H](NC(=O)[C@@H](N)CCCCN)[C@@H](C)O)C(=O)N[C@H](C(=O)N1CCC[C@H]1C(=O)N[C@@H](C)C(=O)N[C@@H](COP(=O)(O)O)C(=O)N[C@@H](CC(C)C)C(=O)N1CCC[C@H]1C(=O)N[C@@H](CCC(N)=O)C(=O)N[C@@H](CC(C)C)C(=O)N[C@H](C(=O)N1CCC[C@H]1C(=O)NCC(=O)NCC(=O)NCC(=O)NCC(=O)NCC(=O)N[C@@H](CCCNC(=N)N)C(=O)N[C@@H](CO)C(=O)N[C@@H](Cc1ccc(O)cc1)C(=O)N[C@@H](CCCNC(=N)N)C(=O)N[C@@H](CCC(N)=O)C(=O)N[C@@H](CO)C(=O)N[C@@H](COP(=O)(O)O)C(=O)N[C@@H](C)C(=O)N[C@@H](CC(N)=O)C(=O)N[C@@H](CC(C)C)C(=O)N[C@@H](CC(C)C)C(=O)N[C@@H](CS)C(=O)N[C@@H](Cc1ccccc1)C(=O)O)[C@@H](C)O)C(C)C` [GR_pS524-pS617] (H-KTIVPA[pS]LPQLTPGGGGGRSYRQS[pS]ANLLCF-OH) as the molecule, how does the Kd ([1]; FP, doubly phosphorylated 31-mer peptides, triplicates, read-out: Kd with 14-3-3ζ (values in nM)) read?
Its Kd is 140 nM.

Which Kd [1, 6] does the source give for `CC(C)C[C@H](NC(=O)[C@H](CO)NC(=O)[C@H](CCC(=O)O)NC(=O)[C@H](CCCCN)NC(=O)[C@H](CO)NC(=O)[C@@H](N)CC(=O)O)C(=O)N[C@H](C(=O)N1CCC[C@H]1C(=O)NCC(=O)N[C@@H](CCCNC(=N)N)C(=O)N[C@@H](CCC(=O)O)C(=O)N[C@@H](CCC(=O)O)C(=O)N[C@@H](CC(N)=O)C(=O)O)[C@@H](C)OP(=O)(O)O` [GR_pT8] (H-DSKESL[pT]PGREEN-OH; N-terminus assumed) here?
The Kd was greater than 150000 nM.

`CC[C@H](C)[C@H](NC(=O)[C@H](CCCCN)NC(=O)[C@H](CCCCN)NC(=O)[C@H](CCCCN)NC(=O)[C@@H](NC(=O)[C@H](CCCCN)NC(=O)[C@H](CCCNC(=N)N)NC(=O)[C@H](C)NC(=O)[C@H](CCC(=O)O)NC(=O)[C@H](CC(C)C)NC(=O)[C@@H](N)CC(N)=O)[C@@H](C)OP(=O)(O)O)C(=O)N[C@@H](CCCCN)C(=O)NCC(=O)O` [GR_pT493] (H-NLEARK[pT]KKKIKG-OH; N-terminus assumed) was tested. Which Kd [2] did it give?
The Kd was greater than 150 µM.

And the Kd [1, 6]?
Its Kd is greater than 150000 nM.

`CC[C@H](C)[C@H](NC(=O)[C@@H](NC(=O)[C@@H](N)CCCCN)[C@@H](C)O)C(=O)N[C@H](C(=O)N1CCC[C@H]1C(=O)N[C@@H](C)C(=O)N[C@H](C(=O)N[C@@H](CC(C)C)C(=O)N1CCC[C@H]1C(=O)N[C@@H](CCC(N)=O)C(=O)N[C@@H](CC(C)C)C(=O)N[C@H](C(=O)N1CCC[C@H]1C(=O)NCC(=O)NCC(=O)NCC(=O)NCC(=O)NCC(=O)N[C@@H](CCCNC(=N)N)C(=O)N[C@@H](CO)C(=O)N[C@@H](Cc1ccc(O)cc1)C(=O)N[C@@H](CCCNC(=N)N)C(=O)N[C@@H](CCC(N)=O)C(=O)N[C@@H](CO)C(=O)N[C@@H](C)C(=O)N[C@@H](C)C(=O)N[C@@H](CC(N)=O)C(=O)N[C@@H](CC(C)C)C(=O)N[C@@H](CC(C)C)C(=O)N[C@@H](CS)C(=O)N[C@@H](Cc1ccccc1)C(=O)O)[C@@H](C)O)[C@@H](C)OP(=O)(O)O)C(C)C` [GR_pT524-S617A] (H-KTIVPA[pT]LPQLTPGGGGGRSYRQSAANLLCF-OH) was tested. Which Kd ([1]; read-out: PKd with 14-3-3ζ (converted)) did it give?
The Kd was 1260 nM.

With `CC[C@H](C)[C@H](NC(=O)[C@H](CCCNC(=N)N)NC(=O)[C@H](Cc1c[nH]c2ccccc12)NC(=O)[C@@H](N)[C@@H](C)O)C(=O)N[C@@H](CCSC)C(=O)N[C@H](C(=O)N[C@H](C(=O)N[C@@H](CC(C)C)C(=O)N[C@@H](CC(N)=O)C(=O)N[C@@H](CCSC)C(=O)N[C@@H](CC(C)C)C(=O)NCC(=O)NCC(=O)O)[C@@H](C)OP(=O)(O)O)[C@@H](C)O` [GR_pT562] as the molecule, how does the Kd ([1]; method not given, read-out: Kd with 14-3-3ζ) read?
Its Kd is 200000 nM.

B1: GR_pS134, FITC-labelled 13-mer phosphopeptide (peptide, UniProt P04150 128-140, looked up)
peptide: {FITC′}-NLNRST[pS]VPENPK
modifications: also: phosphoserine at 134 (S5 or S7)
notes: glucocorticoid receptor (GR), human; 13-mer centred on S134; also called 13-mer peptide centered on GR S134; source: synthetic peptide
For B1, which Kd [3] is on record?
Its Kd is 110 µM.

B2: GR pS83, FITC-labelled 13-mer phosphopeptide (peptide, UniProt P04150 77-89, looked up)
peptide: {FITC}-DLSKAV[pS]LSMGLY
notes: glucocorticoid receptor (GR), human; 13-mer centred on S83; source: synthetic peptide
What does the source list for B2?
Kd [4]: 72 µM; binding result [3]: binds

B3: GR pT561, FITC-labelled 13-mer phosphopeptide (peptide, UniProt P04150 555-567, looked up)
peptide: {FITC}-STWRIM[pT]TLNMLG
notes: glucocorticoid receptor (GR), human; 13-mer centred on T561; source: synthetic peptide
Does B3 bind [3]?
Result: binds

How did the Kd [5] turn out when KTIVPATLPQLTP (also: phosphothreonine at T524, place in chain not given here) [GR_pT524, 13-mer phosphopeptide used for SPR and crystallography] was run?
Its Kd is 22 µM.

B4: GR_pS617, FITC-labelled 13-mer phosphopeptide (peptide, UniProt P04150 611-623, looked up)
peptide: {FITC′}-RSYRQS[pS]ANLLCF
modifications: also: phosphoserine at 617 (S6 or S7)
notes: glucocorticoid receptor (GR), human; 13-mer centred on S617; source: synthetic peptide
What does the source list for B4?
Kd [4]: 25 µM; binding result [3]: binds

{FITC}-INEQRM[pT]LPCMYD (also: phosphothreonine at T635, place in chain not given here) was tested. Which Kd [4] did it give?
Its Kd is 55 µM.

For RSYRQS[pS]ANLLCF (not fully specified (N-terminus)) [GR_pS617, 13-mer phosphopeptide used for SPR and crystallography], which Kd [5] is on record?
Its Kd is 27 µM.

B5: GR pT635, FITC-labelled 13-mer phosphopeptide (peptide, UniProt P04150 629-641, looked up)
peptide: {FITC}-INEQRM[pT]LPCMYD
notes: glucocorticoid receptor (GR), human; 13-mer centred on T635; source: synthetic peptide
Does B5 bind [3]?
Result: binds

For {FITC}-KTIVPATLPQLTP (also: phosphothreonine at T524, place in chain not given here), which Kd [4] is on record?
Its Kd is 38 µM.

B6: GR_pT524, FITC-labelled 13-mer phosphopeptide (peptide, UniProt P04150 518-530, looked up)
peptide: {FITC′}-KTIVPA[pT]LPQLTP
modifications: also: phosphothreonine at 524 (T2, T7 or T12)
notes: glucocorticoid receptor (GR), human; 13-mer centred on T524; source: synthetic peptide
Does B6 bind [3]?
Result: binds
